For assay [1], the target named is Hepatitis B Virus core protein assembly domain (Cp149) dimer (Hepatitis B Virus). In words: resistive-pulse sensing.
Assay [2] shares this target. As to the kind of experiment: SEC. A general note: In gel filtration, larger molecules generally elute earlier.
Assay [3] has the same target. In words: resistive-pulse sensing. This is another data set of the same source.

Where “and” joins values, the source holds several entries; their conditions need not be identical. Equal values may be shown once. Read-outs that look alike come from different tables or passages of the source.

As usually defined, the stoichiometry N is the number of molecules, sites or subunits per partner or assembly. “Hepatitis B Virus core protein assembly domain (Cp149) dimer (domain or fragment)”: the stoichiometry N in assay [1] is 90 subunit and 120 subunit; in assay [3] it was 105 dimers and 77 dimers. The pseudo-critical dimer concentration in assay [2] and in assay [3] was 0.5 µM in each case.

(Values after PMC4753561.)
